Data: US20260217793A1 (Chugai, published 2026)

T1: human FcγRIIa type R (Arg131) extracellular domain with C-terminal His tag (human, UniProt P12318 34-217)
T1 sequence (looked up): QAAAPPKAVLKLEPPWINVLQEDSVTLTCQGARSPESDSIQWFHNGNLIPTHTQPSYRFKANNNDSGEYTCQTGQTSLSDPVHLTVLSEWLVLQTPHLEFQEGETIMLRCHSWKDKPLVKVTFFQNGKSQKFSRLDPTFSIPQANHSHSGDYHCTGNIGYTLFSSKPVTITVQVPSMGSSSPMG

T2: human FcγRIIb extracellular domain with C-terminal His tag (human, UniProt P31994 43-217)
T2 sequence (looked up): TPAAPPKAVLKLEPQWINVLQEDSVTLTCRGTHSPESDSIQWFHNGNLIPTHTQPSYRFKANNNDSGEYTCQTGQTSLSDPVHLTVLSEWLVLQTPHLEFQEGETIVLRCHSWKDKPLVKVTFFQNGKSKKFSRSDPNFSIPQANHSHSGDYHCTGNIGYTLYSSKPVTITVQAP


Key:
Experiment in all cases: SPR
[1] = target: T1, human FcγRIIa type R (Arg131) …
[2] = target: T2, human FcγRIIb extracellular domain with …
[3] = target: human FcγRIIIa type V (Val158) extracellular domain with C-terminal His tag (human, UniProt P08637 17-208)
Chain of human FcγRIIIa type V (Val158) extracellular domain with C-terminal His tag (P08637 17-208 F176V): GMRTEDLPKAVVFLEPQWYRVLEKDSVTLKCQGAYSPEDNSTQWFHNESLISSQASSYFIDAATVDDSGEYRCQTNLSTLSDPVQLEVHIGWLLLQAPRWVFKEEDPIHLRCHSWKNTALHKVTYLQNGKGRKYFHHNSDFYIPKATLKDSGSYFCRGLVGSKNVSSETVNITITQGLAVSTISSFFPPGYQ

Binder	KD (IIaR) of parent polypeptide/KD (IIaR) of altered polypeptide [1]	KD (IIb) of parent polypeptide/KD (IIb) of altered polypeptide [2]	Kd [3] [µM]
IL6R-BP502/IL6R-L (antibody, human IgG1, kappa) heavy: QVQLQESGPGLVKPSETLSLTCAVSGHSISHDHAWSWVRQPPGEGLEWIGFISYSGITNYNPSLQGRVTISRDNSKNTLYLQMNSLRAEDTAVYYCARSLARTTAMDYWGEGTLVTVSSASTKGPSVFPLAPSSKSTSGGTAALGCLVKDYFPEPVTVSWNSGALTSGVHTFPAVLQSSGLYSLSSVVTVPSSSLGTQTYICNVNHKPSNTKVDKKVEPKSCDKTHTCPPCPAPDLLGDDSVFLFPPKPKDTLMISRTPEVTCVVIDVAEEDGEVKFNWYVDGVEVHNAKTKPREEQDNSTYRVVSVLTVLHQDWLNGKEYKCKVSNKGLPRPIEKTISKAKGQPREPQVYTLPPSRDELTKNQVSLTCLVKGFYPSDIAVEWESNGQPENNYKTTPPVLDSDGSFFLYSKLTVDKSRWQQGNVFSCSVMHEALHNHYTQESLSLSP light: not shown	10.1	840	
IL6R-BP503/IL6R-L (antibody, human IgG1, kappa) heavy: QVQLQESGPGLVKPSETLSLTCAVSGHSISHDHAWSWVRQPPGEGLEWIGFISYSGITNYNPSLQGRVTISRDNSKNTLYLQMNSLRAEDTAVYYCARSLARTTAMDYWGEGTLVTVSSASTKGPSVFPLAPSSKSTSGGTAALGCLVKDYFPEPVTVSWNSGALTSGVHTFPAVLQSSGLYSLSSVVTVPSSSLGTQTYICNVNHKPSNTKVDKKVEPKSCDKTHTCPPCPAPDLLGDDSVFLFPPKPKDTLMISRTPEVTCVVIDVAEEDGEVKFNWYVDGVEVHNAKTKPREEQDNSTYRVVSVLTVLHQDWLNGKEYKCKVSNKGLPRPIEKTISKAKGQPREPQVYTLPPSRDELTKNQVSLTCLVKGFYPSDIAVEWESNGQPENNYKTTPMVLDSDGSFFLYSKLTVDKSRWQQGNVFSCSVMHEALHNHYTQESLSLSP light: not shown	19.4	1810	
IL6R-BP536/IL6R-L (antibody, human IgG1, kappa) heavy: QVQLQESGPGLVKPSETLSLTCAVSGHSISHDHAWSWVRQPPGEGLEWIGFISYSGITNYNPSLQGRVTISRDNSKNTLYLQMNSLRAEDTAVYYCARSLARTTAMDYWGEGTLVTVSSASTKGPSVFPLAPSSKSTSGGTAALGCLVKDYFPEPVTVSWNSGALTSGVHTFPAVLQSSGLYSLSSVVTVPSSSLGTQTYICNVNHKPSNTKVDKKVEPKSCDKTHTCPPCPAPDLLGDDSVFLFPPKPKDTLMISRTPEVTCVVIDVSEEDGEVKFNWYVDGVEVHNAKTKPREEQDNSTYRVVSVLTVLHQDWLNGKEYKCKVSNKGLPRPIEKTISKAKGQPREPQVYTLPPSRDELTKNQVSLTCLVKGFYPSDIAVEWESNGQPENNYKTTPMVLDSDGSFFLYSKLTVDKSRWQQGNVFSCSVMHEALHNHYTQESLSLSP light: not shown	13.9	1040	23
IL6R-BP511/IL6R-L (antibody, human IgG1, kappa) heavy: QVQLQESGPGLVKPSETLSLTCAVSGHSISHDHAWSWVRQPPGEGLEWIGFISYSGITNYNPSLQGRVTISRDNSKNTLYLQMNSLRAEDTAVYYCARSLARTTAMDYWGEGTLVTVSSASTKGPSVFPLAPSSKSTSGGTAALGCLVKDYFPEPVTVSWNSGALTSGVHTFPAVLQSSGLYSLSSVVTVPSSSLGTQTYICNVNHKPSNTKVDKKVEPKSCDKTHTCPPCPAPELLGDDSVFLFPPKPKDTLMISRTPEVTCVVIDVAEEDGPVKFNWYVDGVEVHNAKTKPREEQDNSTYRVVSVLTVLHQDWLNGKEYKCKVSNKALPRPIEKTISKAKGQPREPQVYTLPPSRDELTKNQVSLTCLVKGFYPSDIAVEWESNGQPENNYKTTPPVLDSDGSFFLYSKLTVDKSRWQQGNVFSCSVMHEALHNHYTQESLSLSP light: not shown	6.3	891	
IL6R-BP508/IL6R-L (antibody, human IgG1, kappa) heavy: QVQLQESGPGLVKPSETLSLTCAVSGHSISHDHAWSWVRQPPGEGLEWIGFISYSGITNYNPSLQGRVTISRDNSKNTLYLQMNSLRAEDTAVYYCARSLARTTAMDYWGEGTLVTVSSASTKGPSVFPLAPSSKSTSGGTAALGCLVKDYFPEPVTVSWNSGALTSGVHTFPAVLQSSGLYSLSSVVTVPSSSLGTQTYICNVNHKPSNTKVDKKVEPKSCDKTHTCPPCPAPDLLGDDSVFLFPPKPKDTLMISRTPEVTCVVIDVAEEDGPVKFNWYVDGVEVHNAKTKPREEQDNSTYRVVSVLTVLHQDWLNGKEYKCKVSNKALPAPIEKTISKAKGQPREPQVYTLPPSRDELTKNQVSLTCLVKGFYPSDIAVEWESNGQPENNYKTTPPVLDSDGSFFLYSKLTVDKSRWQQGNVFSCSVMHEALHNHYTQESLSLSP light: not shown	2	149	
IL6R-BP509/IL6R-L (antibody, human IgG1, kappa) heavy: QVQLQESGPGLVKPSETLSLTCAVSGHSISHDHAWSWVRQPPGEGLEWIGFISYSGITNYNPSLQGRVTISRDNSKNTLYLQMNSLRAEDTAVYYCARSLARTTAMDYWGEGTLVTVSSASTKGPSVFPLAPSSKSTSGGTAALGCLVKDYFPEPVTVSWNSGALTSGVHTFPAVLQSSGLYSLSSVVTVPSSSLGTQTYICNVNHKPSNTKVDKKVEPKSCDKTHTCPPCPAPDLLGDDSVFLFPPKPKDTLMISRTPEVTCVVIDVAEEDGDVKFNWYVDGVEVHNAKTKPREEQDNSTYRVVSVLTVLHQDWLNGKEYKCKVSNKALPAPIEKTISKAKGQPREPQVYTLPPSRDELTKNQVSLTCLVKGFYPSDIAVEWESNGQPENNYKTTPPVLDSDGSFFLYSKLTVDKSRWQQGNVFSCSVMHEALHNHYTQESLSLSP light: not shown	2.1	174	
IL6R-BP505/IL6R-L (antibody, human IgG1, kappa) heavy: QVQLQESGPGLVKPSETLSLTCAVSGHSISHDHAWSWVRQPPGEGLEWIGFISYSGITNYNPSLQGRVTISRDNSKNTLYLQMNSLRAEDTAVYYCARSLARTTAMDYWGEGTLVTVSSASTKGPSVFPLAPSSKSTSGGTAALGCLVKDYFPEPVTVSWNSGALTSGVHTFPAVLQSSGLYSLSSVVTVPSSSLGTQTYICNVNHKPSNTKVDKKVEPKSCDKTHTCPPCPAPDLLGDDSVFLFPPKPKDTLMISRTPEVTCVVIDVAEEDGDVKFNWYVDGVEVHNAKTKPREEQYNSTYRVVSVLTVLHQDWLNGKEYKCKVSNKALPAPIEKTISKAKGQPREPQVYTLPPSRDELTKNQVSLTCLVKGFYPSDIAVEWESNGQPENNYKTTPPVLDSDGSFFLYSKLTVDKSRWQQGNVFSCSVMHEALHNHYTQESLSLSP light: not shown	2.6	145	
IL6R-BP504/IL6R-L (antibody, human IgG1, kappa) heavy: QVQLQESGPGLVKPSETLSLTCAVSGHSISHDHAWSWVRQPPGEGLEWIGFISYSGITNYNPSLQGRVTISRDNSKNTLYLQMNSLRAEDTAVYYCARSLARTTAMDYWGEGTLVTVSSASTKGPSVFPLAPSSKSTSGGTAALGCLVKDYFPEPVTVSWNSGALTSGVHTFPAVLQSSGLYSLSSVVTVPSSSLGTQTYICNVNHKPSNTKVDKKVEPKSCDKTHTCPPCPAPDLLGDDSVFLFPPKPKDTLMISRTPEVTCVVIDVAEEDGPVKFNWYVDGVEVHNAKTKPREEQYNSTYRVVSVLTVLHQDWLNGKEYKCKVSNKALPAPIEKTISKAKGQPREPQVYTLPPSRDELTKNQVSLTCLVKGFYPSDIAVEWESNGQPENNYKTTPPVLDSDGSFFLYSKLTVDKSRWQQGNVFSCSVMHEALHNHYTQESLSLSP light: not shown	2.4	128	

Next, values leading:

KD (IIaR) of parent polypeptide/KD (IIaR) of altered polypeptide [1]	KD (IIb) of parent polypeptide/KD (IIb) of altered polypeptide [2]	Kd [3] [µM]	Binder
		37	IL6R-BP561/IL6R-L (antibody, human IgG1, kappa) heavy: QVQLQESGPGLVKPSETLSLTCAVSGHSISHDHAWSWVRQPPGEGLEWIGFISYSGITNYNPSLQGRVTISRDNSKNTLYLQMNSLRAEDTAVYYCARSLARTTAMDYWGEGTLVTVSSASTKGPSVFPLAPSSKSTSGGTAALGCLVKDYFPEPVTVSWNSGALTSGVHTFPAVLQSSGLYSLSSVVTVPSSSLGTQTYICNVNHKPSNTKVDKKVEPKSCDKTHTCPPCPAPDLLGDDSVFLFPPKPKDTLMISRTPEVTCVVVDVSDEDGDVKFNWYVDGVEVHNAKTKPREEQDNSTYRVVSVLTVLHQDWLNGKEYKCKVSNKALPRPIEKTISKAKGQPREPQVYTLPPSRDELTKNQVSLTCLVKGFYPSDIAVEWESNGQPENNYKTTPPVLDSDGSFFLYSKLTVDKSRWQQGNVFSCSVMHEALHNHYTQESLSLSP light: not shown
		60	IL6R-BP556/IL6R-L (antibody, human IgG1, kappa) heavy: QVQLQESGPGLVKPSETLSLTCAVSGHSISHDHAWSWVRQPPGEGLEWIGFISYSGITNYNPSLQGRVTISRDNSKNTLYLQMNSLRAEDTAVYYCARSLARTTAMDYWGEGTLVTVSSASTKGPSVFPLAPSSKSTSGGTAALGCLVKDYFPEPVTVSWNSGALTSGVHTFPAVLQSSGLYSLSSVVTVPSSSLGTQTYICNVNHKPSNTKVDKKVEPKSCDKTHTCPPCPAPELLGDDSVFLFPPKPKDTLMISRTPEVTCVVIDVGEEDGEVKFNWYVDGVEVHNAKTKPREEQDNSTYRVVSVLTVLHQDWLNGKEYKCKVSNKALPRPIEKTISKAKGQPREPQVYTLPPSRDELTKNQVSLTCLVKGFYPSDIAVEWESNGQPENNYKTTPPVLDSDGSFFLYSKLTVDKSRWQQGNVFSCSVMHEALHNHYTQESLSLSP light: not shown
5.4	587	33	IL6R-BP538/IL6R-L (antibody, human IgG1, kappa) heavy: QVQLQESGPGLVKPSETLSLTCAVSGHSISHDHAWSWVRQPPGEGLEWIGFISYSGITNYNPSLQGRVTISRDNSKNTLYLQMNSLRAEDTAVYYCARSLARTTAMDYWGEGTLVTVSSASTKGPSVFPLAPSSKSTSGGTAALGCLVKDYFPEPVTVSWNSGALTSGVHTFPAVLQSSGLYSLSSVVTVPSSSLGTQTYICNVNHKPSNTKVDKKVEPKSCDKTHTCPPCPAPELLGDDSVFLFPPKPKDTLMISRTPEVTCVVIDVSEEDGEVKFNWYVDGVEVHNAKTKPREEQYNSTYRVVSVLTVLHQDWLNGKEYKCKVSNKALPRPIEKTISKAKGQPREPQVYTLPPSRDELTKNQVSLTCLVKGFYPSDIAVEWESNGQPENNYKTTPPVLDSDGSFFLYSKLTVDKSRWQQGNVFSCSVMHEALHNHYTQESLSLSP light: not shown
